Experimental data taken from patent US20110166062A1 (INDIANA UNIVERSITY RESEARCH AND TECHNOLOGY, published 2011).
Bridges are numbered along the chain shown (N, C = ends). Where no end group is shown, it is not given here.

T1: GIP receptor (UniProt P48546 22-466)
T1 sequence (looked up): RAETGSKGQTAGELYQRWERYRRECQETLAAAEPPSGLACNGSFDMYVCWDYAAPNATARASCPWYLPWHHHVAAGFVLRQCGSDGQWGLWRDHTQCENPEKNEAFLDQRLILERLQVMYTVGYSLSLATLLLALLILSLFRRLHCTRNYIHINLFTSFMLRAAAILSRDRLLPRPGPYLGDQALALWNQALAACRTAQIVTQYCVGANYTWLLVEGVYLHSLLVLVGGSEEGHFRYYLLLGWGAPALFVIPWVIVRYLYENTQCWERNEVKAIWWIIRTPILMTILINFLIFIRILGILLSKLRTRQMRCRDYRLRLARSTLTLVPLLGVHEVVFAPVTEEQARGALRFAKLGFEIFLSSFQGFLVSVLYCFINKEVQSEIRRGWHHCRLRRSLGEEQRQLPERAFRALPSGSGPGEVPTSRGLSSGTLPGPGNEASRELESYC


Columns and labels:
Test in all cases: cell-based or functional assay
glucagon receptor = glucagon receptor (UniProt P47871 26-477, limits assumed)
GLP-1 receptor = GLP-1 receptor (UniProt P43220 24-463, limits assumed)
GIP receptor = target: T1, GIP receptor

glucagon receptor, sequence (P47871 26-477 limits assumed): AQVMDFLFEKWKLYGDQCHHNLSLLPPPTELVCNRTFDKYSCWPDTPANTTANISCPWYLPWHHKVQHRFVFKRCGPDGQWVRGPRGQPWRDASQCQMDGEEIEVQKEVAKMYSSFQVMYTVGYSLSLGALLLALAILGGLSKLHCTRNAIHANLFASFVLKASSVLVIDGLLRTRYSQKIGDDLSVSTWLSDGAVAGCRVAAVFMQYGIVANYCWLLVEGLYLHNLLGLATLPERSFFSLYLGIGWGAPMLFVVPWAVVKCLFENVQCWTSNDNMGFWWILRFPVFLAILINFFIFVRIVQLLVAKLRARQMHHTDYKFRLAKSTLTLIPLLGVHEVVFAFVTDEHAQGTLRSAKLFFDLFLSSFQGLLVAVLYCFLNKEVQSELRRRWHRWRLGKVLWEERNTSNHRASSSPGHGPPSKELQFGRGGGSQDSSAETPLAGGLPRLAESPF

EC50 (glucagon receptor)	relative activity (glucagon receptor)	EC50 (GLP-1 receptor)	relative activity (GLP-1 receptor)	EC50 (GIP receptor)	relative activity (GIP receptor)	Binder
2.43 nM	8.64%	0.04 nM	100%	5.79 nM	0.95%	HSQGTFTSDYSIYMDEIHQKDFVNWLLAQ-NH2 (lactam 16-20; N-terminus assumed; SMILES CC[C@H](C)[C@H](NC(=O)[C@H](CO)NC(=O)[C@H](Cc1ccc(O)cc1)NC(=O)[C@H](CC(=O)O)NC(=O)[C@H](CO)NC(=O)[C@@H](NC(=O)[C@H](Cc1ccccc1)NC(=O)[C@@H](NC(=O)CNC(=O)[C@H](CCC(N)=O)NC(=O)[C@H](CO)NC(=O)[C@@H](N)Cc1c[nH]cn1)[C@@H](C)O)[C@@H](C)O)C(=O)N[C@@H](Cc1ccc(O)cc1)C(=O)N[C@@H](CCSC)C(=O)N[C@@H](CC(=O)O)C(=O)N[C@H]1CCC(=O)NCCCC[C@@H](C(=O)N[C@@H](CC(=O)O)C(=O)N[C@@H](Cc2ccccc2)C(=O)N[C@H](C(=O)N[C@@H](CC(N)=O)C(=O)N[C@@H](Cc2c[nH]c3ccccc23)C(=O)N[C@@H](CC(C)C)C(=O)N[C@@H](CC(C)C)C(=O)N[C@@H](C)C(=O)N[C@@H](CCC(N)=O)C(N)=O)C(C)C)NC(=O)[C@H](CCC(N)=O)NC(=O)[C@H](Cc2c[nH]cn2)NC(=O)[C@H]([C@@H](C)CC)NC1=O) [mt-124]
5.74 nM	9.06%	1.26 nM	3.17%	0.275 nM	19.6%	YSQGTFTSDYSIYMDEIHQKDFVNWLLAQ-NH2 (lactam 16-20; N-terminus assumed; SMILES CC[C@H](C)[C@H](NC(=O)[C@H](CO)NC(=O)[C@H](Cc1ccc(O)cc1)NC(=O)[C@H](CC(=O)O)NC(=O)[C@H](CO)NC(=O)[C@@H](NC(=O)[C@H](Cc1ccccc1)NC(=O)[C@@H](NC(=O)CNC(=O)[C@H](CCC(N)=O)NC(=O)[C@H](CO)NC(=O)[C@@H](N)Cc1ccc(O)cc1)[C@@H](C)O)[C@@H](C)O)C(=O)N[C@@H](Cc1ccc(O)cc1)C(=O)N[C@@H](CCSC)C(=O)N[C@@H](CC(=O)O)C(=O)N[C@H]1CCC(=O)NCCCC[C@@H](C(=O)N[C@@H](CC(=O)O)C(=O)N[C@@H](Cc2ccccc2)C(=O)N[C@H](C(=O)N[C@@H](CC(N)=O)C(=O)N[C@@H](Cc2c[nH]c3ccccc23)C(=O)N[C@@H](CC(C)C)C(=O)N[C@@H](CC(C)C)C(=O)N[C@@H](C)C(=O)N[C@@H](CCC(N)=O)C(N)=O)C(C)C)NC(=O)[C@H](CCC(N)=O)NC(=O)[C@H](Cc2c[nH]cn2)NC(=O)[C@H]([C@@H](C)CC)NC1=O) [mt-125]
0.773 nM	11.1%	0.12 nM	33.3%	14.6 nM	0.42%	HSQGTFTSDYSKYLDEIHQKDFIAWLMNGGPSSGAPPPS-NH2 (lactam 16-20; N-terminus assumed; SMILES CC[C@H](C)[C@H](NC(=O)[C@H](Cc1ccccc1)NC(=O)[C@H](CC(=O)O)NC(=O)[C@@H]1CCCCNC(=O)CC[C@H](NC(=O)[C@H](CC(=O)O)NC(=O)[C@H](CC(C)C)NC(=O)[C@H](Cc2ccc(O)cc2)NC(=O)[C@H](CCCCN)NC(=O)[C@H](CO)NC(=O)[C@H](Cc2ccc(O)cc2)NC(=O)[C@H](CC(=O)O)NC(=O)[C@H](CO)NC(=O)[C@@H](NC(=O)[C@H](Cc2ccccc2)NC(=O)[C@@H](NC(=O)CNC(=O)[C@H](CCC(N)=O)NC(=O)[C@H](CO)NC(=O)[C@@H](N)Cc2c[nH]cn2)[C@@H](C)O)[C@@H](C)O)C(=O)N[C@@H]([C@@H](C)CC)C(=O)N[C@@H](Cc2c[nH]cn2)C(=O)N[C@@H](CCC(N)=O)C(=O)N1)C(=O)N[C@@H](C)C(=O)N[C@@H](Cc1c[nH]c2ccccc12)C(=O)N[C@@H](CC(C)C)C(=O)N[C@@H](CCSC)C(=O)N[C@@H](CC(N)=O)C(=O)NCC(=O)NCC(=O)N1CCC[C@H]1C(=O)N[C@@H](CO)C(=O)N[C@@H](CO)C(=O)NCC(=O)N[C@@H](C)C(=O)N1CCC[C@H]1C(=O)N1CCC[C@H]1C(=O)N1CCC[C@H]1C(=O)N[C@@H](CO)C(N)=O) [mt-128]
